The target of the data set is T1, hORC1(413-511) (Homo sapiens, UniProt Q13415 413-511).
T1 sequence: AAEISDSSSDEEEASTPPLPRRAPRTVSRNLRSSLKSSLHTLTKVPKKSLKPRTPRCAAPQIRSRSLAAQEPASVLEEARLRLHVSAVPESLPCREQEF
Nature of the data set: fluorescence anisotropy; 100 mM KCl; FA: 20 mM HEPES-KOH pH 7.7, 100 mM KCl (or LiCl), 1 mM EDTA, 1 mM DTT, 25 C, 2 uM DNA, 1:1 fit; NMR: same buffer with 10% D2O, 10 uM DSS, 75 uM DNA, 25 C. To be noted: protein: recombinant, tags: N-terminal GST (pGEX-6P-1) removed with PreScission protease. In general terms: Polarisation of emitted light reports the rotation of a fluorescent probe.

Where [1] appears, read: label: 5'-FAM, G4, multiple folds, 1 strand.

Consider TGAGGGTGGGTAGGGTGGGTAA (structured_DNA) [mtPu22], for which, for the setting “label: 5'-FAM (FA), label in NMR not clear, parallel G4, 1 strand”, the Kd (in general, the constant that tells how readily two partners part at equilibrium) came to 310 ± 39.2 nM.

Regarding TGGGGAGGGTGGGGAGGGT (structured_DNA) [wtPu19], the Kd under setting [1] amounted to 45.2 nM.

In the case of TGAGGGTGGGGAGGGTGGGGAA (structured_DNA) [wtPu22], the Kd under setting [1] came out at 166 nM.

B1: dsDNA (dsDNA)
DNA 1: AAATTTAAAAAAAAAAATAATT
DNA 2: AATTATTTTTTTTTTTAAATTT
Turning to B1, the dissociation constant Kd (label: 5'-FAM on strand 1, blunt) came out at 1910 nM.

For TAGGGAGGGTAGGGAGGGT (structured_DNA) [mtPu19], the Kd (label: 5'-FAM, parallel G4, 1 strand) is 446 ± 308 nM.

As for TTGGGTTAGGGTTAGGGTTAGGGA (structured_DNA) [teloDNA], the dissociation constant Kd (label: 5'-FAM (FA), label in NMR not clear, (3+1) G4 in K+, 1 strand) turned out to be 227 ± 23.6 nM.

These data come from article PMC8036949, “Investigation of the Interaction of Human Origin Recognition Complex Subunit 1 with G-Quadruplex DNAs of Human c-myc Promoter and Telomere Regions”.
